Assay [1] concerns the target T1, human MAdCAM expressed on cells (human, UniProt Q13477 19-382).
T1 construct: whole, on cells; also called MADCAM1
T1 sequence (looked up): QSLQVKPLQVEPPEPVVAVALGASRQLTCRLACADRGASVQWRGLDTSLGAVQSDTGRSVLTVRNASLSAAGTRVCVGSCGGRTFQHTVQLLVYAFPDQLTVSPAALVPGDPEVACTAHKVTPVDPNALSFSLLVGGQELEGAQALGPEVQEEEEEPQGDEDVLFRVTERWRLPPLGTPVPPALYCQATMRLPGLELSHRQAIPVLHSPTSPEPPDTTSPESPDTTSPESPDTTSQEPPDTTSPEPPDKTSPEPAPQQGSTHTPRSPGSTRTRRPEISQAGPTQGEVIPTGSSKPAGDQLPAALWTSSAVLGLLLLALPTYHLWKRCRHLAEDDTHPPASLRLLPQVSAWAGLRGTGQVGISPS
Briefly: cell binding.

The target in assay [2] is T2, mouse MAdCAM expressed on cells (mouse, UniProt Q61826 22-405).
T2 construct: whole, on cells
T2 sequence (looked up): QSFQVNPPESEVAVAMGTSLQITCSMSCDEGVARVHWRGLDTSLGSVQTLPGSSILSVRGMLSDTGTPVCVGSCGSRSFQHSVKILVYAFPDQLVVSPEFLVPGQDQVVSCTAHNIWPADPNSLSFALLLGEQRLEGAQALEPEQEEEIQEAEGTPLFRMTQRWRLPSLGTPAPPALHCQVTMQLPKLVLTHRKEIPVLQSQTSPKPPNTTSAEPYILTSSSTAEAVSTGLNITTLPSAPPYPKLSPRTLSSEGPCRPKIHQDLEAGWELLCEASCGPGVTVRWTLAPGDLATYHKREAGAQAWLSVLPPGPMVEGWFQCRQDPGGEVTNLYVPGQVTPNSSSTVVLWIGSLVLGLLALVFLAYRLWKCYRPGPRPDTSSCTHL
Briefly: cell binding.

Changes are numbered by the printed parent chain.

B1: MAdCAM Antibody Table 1 Clone 16 (scFv)
scFv: EVQLLESGGGLVQPGGSLRLSCAASGFTFEDYAMHWVRQAPGKGLEWVSYLNSDGGSTSYADSVKGRFTISRDNSKNTLYLQMNSLRAEDTAVYYCAKDYCTNGVCAFDYWGQGTLVTVSSGGGGSGGGGSGGGGSGGGGSDIQMTQSPSSLSASVGDRVTITCRASQSISTYLNWYQQKPGKAPKLLIYDASNLETGVPSRFSGSGSGTDFTLTISSLQPEDFATYYCQQSYTIPITFGQGTRLEIK
Regarding B1, the binding result in assay [1] is “binds”; in assay [2], “no binding”.

B2: MAdCAM Antibody Table 1 Clone 14 (scFv)
scFv: QVQLVQSGAEVKKPGSSVKVSCKASGYTFTDYHIHWVRQAPGQGLEWMGGIVPRSGSTTYAQKFQGRVTITADESTSTAYMELSSLRSEDTAVYYCAKDESSGWYYFDYWGQGTLVTVSSGGGGSGGGGSGGGGSGGGGSDIVMTQSPLSLPVTPGEPASISCRSSQSLLHSNGYNYLDWYLQKPGQSPQLLIYSAYNRASGVPDRFSGSGSGTDFTLKISRVEAEDVGVYYCMQALQTPLTFGQGTKVEIK
With B2, the results for the binding result in assay [1] and in assay [2] were “binds” and “no binding”, respectively.

B3: MAdCAM Antibody Table 1 Clone 15 (scFv)
scFv: QVQLVQSGAEVKKPGSSVKVSCKASGYTFTNYYMHWVRQAPGQGLEWMGGIIPIVDRVKYAQKFQGRVTITADESTSTAYMELSSLRSEDTAVYYCAKGRYTVNYYYGMDVWGQGTTVTVSSGGGGSGGGGSGGGGSGGGGSDIQMTQSPSSLSASVGDRVTITCQANQDISNYLNWYQQKPGKAPKLLIYRASKLEAGVPSRFSGSGSGTDFTLTISSLQPEDFATYYCQQSSEIPYSFGQGTKLEIK
In the case of B3, the binding result in assay [1] is on record as “binds”; in assay [2] it was “no binding”.

B4: MAdCAM Antibody Table 1 Clone 21 (scFv)
scFv: EVQLLESGGGLVQPGGSLRLSCAASGFTFSNAWMSWVRQAPGKGLEWVSTIVGNGGATYYADSVKGRFTISRDNSKNTLYLQMNSLRAEDTAVYYCARDNPLRWQGMDVWGQGTLVTVSSGGGGSGGGGSGGGGSGGGGSDIQMTQSPSSLSASVGDRVTITCRASQDISNYLNWYQQKPGKAPKLLIYAASSLQSGVPSRFSGSGSGTDFTLTISSLQPEDFATYYCQQSYSIPPTFGPGTKVDIK
With B4, the binding result is “binds” in assay [1] and “no binding” in assay [2].

B5: MAdCAM Antibody Table 1 Clone 10 (scFv)
scFv: QVQLVQSGAEVKKPGASVKVSCKASGYTLTTWYMYWVRQAPGQGLEWMGWINPNRGATNYAQKFQGRVTMTRDTSTSTVYMELSSLRSEDTAVYYCAKGDLWGAMDVWGQGTLVTVSSGGGGSGGGGSGGGGSGGGGSDIQMTQSPSSLSASVGDRVTITCRASDNIGSWLAWYQQKPGKAPKLLIYAASSLQSGVPSRFSGSGSGTDFTLTISSLQPEDFATYYCQQGYSTPPTFGQGTKVEIK
For the molecule B5, the figures for the binding result in assay [1] and in assay [2] were “binds” and “no binding”, respectively.

B6: MAdCAM Antibody Table 1 Clone 26 (scFv)
scFv: B5 scFv with L113T
For B6, the binding result in assay [1] was “binds”; in assay [2], “no binding”.

B7: MAdCAM Antibody Table 1 Clone 17 (scFv)
scFv: EVQLLESGGGLVQPGGSLRLSCAASGFTFSDSAMHWVRQAPGKGLEWVSAISGSGSTIYYADSVKGRFTISRDNSKNTLYLQMNSLRAEDTAVYYCVSDIAVAGHWYFDLWGRGTLVTVSSGGGGSGGGGSGGGGSGGGGSDIQMTQSPSSLSASVGDRVTITCRASQSISTFLNWYQQKPGKAPKLLIYAASRLEGGVPSRFSGSGSGTDFTLTISSLQPEDFATYYCQQANSFPLTFGPGTKVDIK
For B7, the binding result in assay [1] was “binds”; in assay [2], “no binding”.

These data come from patent US20210206856A1 (PANDION OPERATIONS, published 2021).
